Assay: soluble on expression in E. coli; label from the status in PepcDB or PDB records

| Sequence | soluble on expression in E. coli |
| --- | --- |
| MTQCFKCKQAIGTVVSRDGPTKLYCPDCFLAYCAGAVRENAFQQCRVPSDTPLAVAVSGGPNSMMLLRELGQLRYKTRDQIRRQHLTPQRQAPAQGGKSRSTPTSSPPARSTPLASSLILLPFHLCEDELVLPLPPPLSSSTSSPSSLHAISGRHEAVNRVRSAMEEQFATLRKYVQQQPPRWVYHGEVPCGHKRTKKQQNNPTAAERTGAAHAGGANIATPELSHRGGGSTSAPSPQPRPQRQAGESGETAAATARLFDDSEIRLFRYSDLLSGTYLSELRYALHVSRLSLSDREALYARVRQQTLCRAAQRVCQEHRQRNAAAAAATAVVVGGVAHEEGIREDAAQCSEEQAPFDEHVSLEGTNSKTRSHLLLGSNAVRCATAALEALVTGAGGEGVVHGAGFRGFTHEVVCLRPLRAMLPKETIMYTRLCGIAGSYTPALCTGTATRSVHRTLEQFVLTMMTSYRTMIFNVLNTVQRLEVHPAAMQELLRGIDDASACHTHVHGEGLAEAGSTQSAGKTTRKALPARTAQLNRTDMCLAAPLHVRRDLGGVNVNEADIDSVIAMCCVCGCPASITSCYRGQNANTAVRQLEMLALNTTSAMTPRTSGASPSTVADAASASEASPTTTGCFLCYACQGLADAWPPSVFGRDSTTENDEQPGNDSTTAAGAAARHGAIASTAALFRLCALFY | not soluble |
| MAGDPMKKLVTATTLTAGIGTALVGQAHHADAAENYTNYNNYNYNTTQTTTTTTTTTTTSSISHSGNLYTAGQCTWYVYDKVGGEIGSTWGNANNWAAAAQGAGFTVNHTPSKGAILQSSEGPFGHVAYVESVNSDGSVTISEMNYSGGPFSVSSRTISASEAGNYNYIHILEHHHHHH | not soluble |
| MKEDLLDIVCCPLDKHDLTLDADATEDGEVMAGTLTCTDCGETYPIEDGIPNLLPPDMRDDAESASALEHHHHHH | not soluble |
| MMSLLAVGLVFGLAACSGTSDAKGKIVISGKKFTEQVILTHLLAEYVKANTDLDVEVKDSLGGAFMLQQAIENGDVDMYVEYTGTGYLNILKQPYDPAKTPEQIYNETKKLYKEKYNIAWLKPLGFNNTYALAMRRDLAEKLGVKTYSDLAKHSSSLTFGSDAEFFERSDGYDGLVDTYGFQFKKKVTIDPDLQYEAAKNSEIDVITAYTTDARIKKYDLVVLKDDKQYFPPYHAVPIIRQEVLDANPGLEKKLNKLANILTDEKMMELNGQVNLEGKQPREVALDFLKAEGLID | not soluble |
| MGSDKIHHHHHHMALIHEIITSENIKGFYNAKNENVENTLGEKAFPPKQQLGLKLSFIKGAAGKPVTLKAAAFDTKVPLRDRMAVELIDEEMPFFKEAMLVKEADRQQLNMLAQTKNNELIDTILASIYNDQATLIAGAKARLEAMRMEVLSKGKIHIQSNGVMKDIDYGLAEDQTTKPDAKWDSAGTATPLKDIEKAIEKMAERGFVPEAIIMNSKTFSLIKNAESTLDVVKPMAPNGAAVTKRDLNTYLEDELQIKVILKDGMFVGDDGESRKYFPDGFATLVPNGNLGYTVFGTTPEQSDLLGGEATDANVSIVETGIAITTTKTTDPVNVQTKVSMIALPSFERLEEVHIINGLQDA | not soluble |
| MIVETMTYQEIADEFKKDWERSIRHKITDCFGMANKYRRYILKEGKTDKWIRFKPIEFTSPRGNNCVIQFVSKGWADYKRNGLIFVLYMYYYKSEGLYAVMIAGDNFDEFSFYTPHLFDRYRERKLKDISKPKLQTMFDFFKTNATSRFNRVNNDKYANSIFSVCPNGVTLGSEISDKIIENRTYITFEMLKSDQVQDEEKLGTALKAYLDKQL | not soluble |
| MKALARFGKAFGGYKMIDVPQPMCGPEDVVIEIKAAAICGADMKHYNVDSGSDEFNSIRGHEFAGCIAQVGEKVKDWKVGQRVVSDNSGHVCGVCPACEQGDFLCCTEKVNLGLDNNTWGGGFSKYCLVPGEILKIHRHALWEIPDGVDYEDAAVLDPICNAYKSIAQQSKFLPGQDVVVIGTGPLGLFSVQMARIMGAVNIVVVGLQEDVAVRFPVAKELGATAVVNGSTEDVVARCQQICGKDNLGLVIECSGANIALKQAIEMLRPNGEVVRVGMGFKPLDFSINDITAWNKSIIGHMAYDSTSWRNAIRLLASGAIKVKPMITHRIGLSQWREGFDAMVDKTAIKVIMTYDFDE | soluble |
| SAEKFDHLEEHLEKFVENIRQLGIIVSDFQPSSQAGLNQKLNFIVTGLQDIDKCRQQLHDITVPLEVFEYIDQGRNPQLYTKECLERALAKNEQVKGKIDTMKKFKSLLIQELSKVFPEDMAKYRSIRGEDHPPS | soluble |
| MWTVTKIRADYEGWWLFSDWPENIVEKYQYQDFDDMFKHYQQLINQCKVQFDNYVTGKYNIYAFYNNCDMNYCEDCEEDLQIFYSFIVLQNNEVYYKLPIIDLEHHHHHH | soluble |
| MVFDPRTLDNPKEISAYRDQRYQGTVRDQETALRTSCTLYVGNLSYYTKEDQVYELFGRAGDVRRVIMGLDRFKKTPCGFCFVEYYTREDAELALQNISNTRMDDRVIRADWDAGFIEGRQYGRGKHGGQVRDEYRKDYDPERGGYNRAIAQKG | not soluble |
| MGHHHHHHSHMLTKFETKSARVKGLSFHPKRPWILTSLHNGVIQLWDYRMCTLIDKFDEHDGPVRGIDFHKQQPLFVSGGDDYKIKVWNYKLRRCLFTLLGHLDYIRTTFFHHEYPWILSASDDQTIRVWNWQSRTCVCVLTGHNHYVMCAQFHPTEDLVVSASLDQTVRVWDISGLRKKNLSPGAVESDVRGITGVDLFGTTDAVVKHVLEGHDRGVNWAAFHPTMPLIVSGADDRQVKIWRMNESKAWEVDTCRGHYNNVSCAVFHPRQELILSNSEDKSIRVWDMSKRTGVQTFRRDHDRFWVLAAHPNLNLFAAGHDGGMIVFKLERERPA | not soluble |
| MTIAQQERPVAASPYRFEAEMTSGLERVAAHHHDLTLTSVFQPIFSLSHMRAVGYEALLRAHDALDRPVSPLDVFGEAARHGEAAQVDRLAQALHLENFARFGAEREWLFLNVHPGVLTDPFQAAALFANLKRLEIPPRRIVLEVLEQRADDIERLADAVREFREQGFLIALDDFGAGHSNIERIWQLNPDIVKLDRIMLSHAQHRAGLTAILHGLVTLLHEAGKLVLIEGIETEHEAQIALACDADFVQGHFFGRPAPGLPDGAAASACIGELTERYRQQAEASERRDAQRLAPYQRAFERAAERLAAGEPLDEVCWNFLALDHAARCFLLDERGRQAGRNVVRRADRARHETRFLPLADAQGANWLRRPYFRSAIAAPGRVQATRPYLSINEALPCVTLSIAVRVHDALCVLCGDIDWIDDEASMSA | soluble |
| ERFAREPMAAGHRMWQMAGLKAQRAQTDVNNKKAAFDAAAKEKSDADVALSSALERRKQKENKEKDAKAKLDKESKRNKPGKATGKGKPVNNKWLNNAGKDLGSPVPDRIANKLRDKEFKSFDDFRKKFWEEVSKDPELSKQFSRNNNDRMKVGKAPKTRTQDVSGKRTSFELHHEKPISQNGGVYDMDNISVVTPKRHIDIHRGK | soluble |
| MARTEKKKDVVIVGLGWTGAIAGMELAAEGLEIVALERGRDQNTVPEFKYPNQIDELTYGVRLVNMQHPSQQTVTVRRNDAETALPYRSMGSFLPANGVGGAGTHWNGLLWRPQPQEIQLRSYVKERWGESIIPEGMNLMDYPVTYDELEPFFTRFDEVAGISGKAGNLKGKIQPGGNPFEGWRSSEYPMPPMPPTYDATKFRDAAQAMGYHPFPAPAGVASTAYVNPYGMQMAPCNFCGFCERFGCYQYSKSSPQTAILDALKRKPNFSYRTHAEVLRIESSADGKTATGVTYFDAAAQEEVFQPADLVILAAYQLNNVHLLLLSGIGEPYDPATNTGVTGKNYAYQMNGGVTMFFKDANFNPFIGHGSNGFCIDDFSVNQNDFGALGFIGGAYWRSGTFNGQPIRSMILPAGTPGWGAGWKKAIGQWYGHSMSIGTHGSHMAYRANHLDLDPTYKDPHGRPLMRMTFNWQDNDLRMNQYMKLKAGEVGKAMKPDLMQLGFKGPGAMYDVRPYQTTHNTGGHIMSRDPREGVVNRYCQAWDKHNVFVMGAGNFVQNTQYNPTGMVGALAYWTIHAIRTQYLRDPRPLVLEHHHHHH | not soluble |
| MSLLSIIPISAGIPLTETEPKQKWLEEWSKQLFVKVSIDSEYGWGEVLPAAFNSPALYADIVKRLEPSLNGMEISEPGIIWEKLRKLTFSGGYGPVIGAISGVDIALWDLKAKLSKLYLGDIFGKNEQKIARYASLSRYANYEAVIRASKNIVESGFKAIKLHQTKDDTLESVKRFREEIGYGVDLMVDLNCAMNIDEAIKFANSVQRYELKWVEEPIWPPDDLASLKKINDIVPVAAGENFFDFFKFEDAVHLEALTYYQPDVTKVGGLTPTLKILDLLKKNHEQVAFHNRPHNGWIGIFASIAAARMNGVDALIETPPNGVPSQYFRYNAMITSEVIAPNGVGLSIEPIEPLPQPKDEKILIFHDEGHHHHHH | not soluble |
| MRASPTSPPEQVVVDASAMVDLLARTSDRCSAVRARLARTAMHAPAHFDAEVLSALGRMQRAGALTVAYVDAALEELRQVPVTRHGLSSLLAGAWSRRDTLRLTDALYVELAETAGLVLLTTDERLARAWPSAHAIG | soluble |
| MRKPTDTLPVNLQRRRLLCAAGALLLSPLAHAGAQREETLADDVASVMRSSVGSVNPPRLVFDNPKEGERWLSAMSARLARFVPEEEERRRLLVNIQYESSRAGLDTQIVLGLIEVESAFRQYAISGVGARGLMQVMPFWKNYIGKPAHNLFDIRTNLRYGCTILRHYRNLEKGNIVRALARFNGSLGSNKYPNAVLGAWRNRWQWR | not soluble |
| GRRIQGQRRGRGTSTFRAPSHRYKADLEHRKVEDGDVIAGTVVDIEHDPARSAPVAAVEFEDGDRRLILAPEGVGVGDELQVGVDAEIAPGNTLPLAEIPEGVPVCNVESSPGDGGKFARASGVNAQLLTHDRNVAVVKLPSGEMKRLDPQCRATIGVVGGGGRTDKPFVKAGNKHHKMKARGTKWPNVRGVAMNAVDHPFGGGGRQHPGKPKSISRNAPPGRKVGDIASKRTGRGGNE | soluble |
| PLLIGGLYPKNLEDRILIKLDQAPPYLLDGLVAVEDRDFYHHFGVSPKSIARAIWVNTSQGQMRQGGSTLTQQLVKNFYLTNERSLSRKLTEAMMAVLLEIHYSKQEILEAYLNEVFVGQDGQRAVHGFGLASQYFFSQPLSELKIHQVAMLVGLVKGPSFY | not soluble |
| MSASSERELYEAWVELLSWMREYAQAKGVRFEKEADFPDFIYRMERPYDLPTTIMTASLSDGLGEPFLLADVSPRHAKLKRIGLRLPRAHIHLHAHYEPGKGLVTGKIPLTKERFFALADRAREALAFA | soluble |
| MTIYTCTLNLAIDLFIETEELVPFVVNRTKEDDIQANGKGVNVSLILKMLGIDNTALGVKAGFTGNYVEDYLKEKEITTDFIEVAGTTRINVFTKVTQDQKEYKLVNKGPKLSEEHVQRFLKKISELRKGDYLCVSGSLPQGVSPSILIEISRICFEKQVFLILDSSYEEILDCLPYQPFLLKPNEEELQEWFHTEVQTKDDYIFYGQELLKRGAKNILLSLGSEGALFMNNEKVLSGNSPTGMVVNTACSGDAMLGTFLAGWHQGLSLEKNLKRSIAAGSSTAFRKGLTDFSDVQELEQQIKIQEEE | not soluble |
| MAHHHHHHMGTLEAQTQGPGSMSFSNVPAGKDLPQDFNVIIEIPAQSEPVKYEADKALGLLVVDRFIGTGMRYPVNYGFIPQTLSGDGDPVDVLVITPFPLLAGSVVRARALGMLKMTDESGVDAKLVAVPHDKVCPMTANLKSIDDVPAYLKDQIKHFFEQYKALEKGKWVKVEGWDGIDAAHKEITDGVANFKK | soluble |
